Source: PMC9482650, “Quantitative fragmentomics allow affinity mapping of interactomes” (Nature Communications, 2022)

Columns and labels:
Assay in all cases: holdup assay
Parameters in all cases: key: below the threshold = too weak to quantify, mostly under pKd 3.1 to 4
LRRC7, Q96NW7 = target: T1, LRRC7, Q96NW7
T1 sequence (Q96NW7 1440-1537, limits assumed, looked up): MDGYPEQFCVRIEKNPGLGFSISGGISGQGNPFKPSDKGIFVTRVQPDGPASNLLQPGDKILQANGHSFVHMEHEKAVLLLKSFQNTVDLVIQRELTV

GRIP2_4, Q9C0E4 = target: GRIP2_4, Q9C0E4
CARD11, Q9BXL7 = target: T2, CARD11, Q9BXL7
T2 sequence (Q9BXL7 662-765, limits assumed, looked up): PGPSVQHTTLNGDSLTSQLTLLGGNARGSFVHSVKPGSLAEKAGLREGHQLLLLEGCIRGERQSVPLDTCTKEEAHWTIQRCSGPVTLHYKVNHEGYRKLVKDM

SCRIB_1, Q14160 = target: SCRIB_1, Q14160
DLG2_3, Q15700 = target: DLG2_3, Q15700
SNX27, Q96L92 = target: SNX27, Q96L92
NHERF3_3, Q5T2W1 = target: T3, NHERF3_3, Q5T2W1
T3 sequence (Q5T2W1 238-333, limits assumed, looked up): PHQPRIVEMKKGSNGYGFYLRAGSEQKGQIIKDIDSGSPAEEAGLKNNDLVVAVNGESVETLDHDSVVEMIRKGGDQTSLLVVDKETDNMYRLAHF

GORASP1, Q9BQQ3 = target: GORASP1, Q9BQQ3
DFNB31_3, Q9P202 = target: T4, DFNB31_3, Q9P202
T4 sequence (Q9P202 811-907, limits assumed, looked up): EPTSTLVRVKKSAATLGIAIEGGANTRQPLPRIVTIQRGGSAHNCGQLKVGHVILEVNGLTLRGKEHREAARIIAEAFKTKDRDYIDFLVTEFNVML

SNTB1, Q13884 = target: T5, SNTB1, Q13884
T5 sequence (Q13884 107-205, limits assumed, looked up): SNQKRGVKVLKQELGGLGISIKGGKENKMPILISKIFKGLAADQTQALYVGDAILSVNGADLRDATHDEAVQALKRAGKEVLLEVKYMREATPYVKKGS

Inadl_2, Q8NI35 = target: Inadl_2, Q8NI35
DLG1_3, Q12959 = target: DLG1_3, Q12959
Inadl_10, Q8NI35 = target: Inadl_10, Q8NI35
GRASP, Q7Z6J2 = target: GRASP, Q7Z6J2
TIAM2, Q8IVF5 = target: T6, TIAM2, Q8IVF5
T6 sequence (Q8IVF5 885-986, limits assumed, looked up): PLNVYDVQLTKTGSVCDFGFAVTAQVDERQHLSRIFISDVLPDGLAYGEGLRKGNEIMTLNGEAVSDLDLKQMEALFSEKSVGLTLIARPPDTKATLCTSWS

FRMPD2_3, Q68DX3 = target: FRMPD2_3, Q68DX3
IL16_3, Q14005 = target: IL16_3, Q14005
GOPC, Q9HD26 = target: GOPC, Q9HD26
GRIP1_4, Q9Y3R0 = target: T7, GRIP1_4, Q9Y3R0
T7 sequence (Q9Y3R0 467-571, limits assumed, looked up): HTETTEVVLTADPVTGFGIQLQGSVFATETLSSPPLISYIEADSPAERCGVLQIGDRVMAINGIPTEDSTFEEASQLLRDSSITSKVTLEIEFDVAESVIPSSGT

SNTA1, Q13424 = target: T8, SNTA1, Q13424
T8 sequence (Q13424 82-180, limits assumed, looked up): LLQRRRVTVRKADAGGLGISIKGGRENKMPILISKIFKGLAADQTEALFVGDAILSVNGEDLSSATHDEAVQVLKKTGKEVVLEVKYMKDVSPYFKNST

HTRA3, P83110 = target: T9, HTRA3, P83110
T9 sequence (P83110 354-453, limits assumed, looked up): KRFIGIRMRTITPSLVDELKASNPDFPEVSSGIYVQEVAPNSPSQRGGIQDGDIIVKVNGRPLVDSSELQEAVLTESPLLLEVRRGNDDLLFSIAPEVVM

GRIP1_7, Q9Y3R0 = target: T10, GRIP1_7, Q9Y3R0
T10 sequence (Q9Y3R0 999-1096, limits assumed, looked up): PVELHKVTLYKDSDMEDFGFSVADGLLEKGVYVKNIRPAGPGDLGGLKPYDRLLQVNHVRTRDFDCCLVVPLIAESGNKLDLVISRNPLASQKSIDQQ

MAGI3_2, Q5TCQ9 = target: MAGI3_2, Q5TCQ9
GRIP2_6, Q9C0E4 = target: GRIP2_6, Q9C0E4
RHPN1, Q8TCX5 = target: T11, RHPN1, Q8TCX5
T11 sequence (Q8TCX5 508-602, limits assumed, looked up): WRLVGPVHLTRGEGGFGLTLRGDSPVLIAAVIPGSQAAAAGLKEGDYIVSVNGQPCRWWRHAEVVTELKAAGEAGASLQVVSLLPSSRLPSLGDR

Inadl_6, Q8NI35 = target: Inadl_6, Q8NI35
[1] = plain residues with an end cap or a label only (N-terminal biotin on a linker: ahx)
[2] = plain residues with an end cap or a label only (N-terminal biotin on a linker: ado-ado)

Chain of SCRIB_1, Q14160 (Q14160 718-814): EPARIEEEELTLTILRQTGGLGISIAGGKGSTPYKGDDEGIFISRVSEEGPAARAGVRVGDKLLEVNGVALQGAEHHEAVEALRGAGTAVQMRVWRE
Chain of Inadl_2, Q8NI35 (Q8NI35 238-335): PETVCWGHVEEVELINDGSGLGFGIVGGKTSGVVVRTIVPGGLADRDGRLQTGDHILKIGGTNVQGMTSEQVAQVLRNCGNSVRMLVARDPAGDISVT
Chain of GRASP, Q7Z6J2 (Q7Z6J2 96-193): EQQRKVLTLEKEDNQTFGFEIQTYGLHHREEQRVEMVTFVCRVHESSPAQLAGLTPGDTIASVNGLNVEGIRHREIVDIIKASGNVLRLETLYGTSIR
Chain of GORASP1, Q9BQQ3 (Q9BQQ3 1-208): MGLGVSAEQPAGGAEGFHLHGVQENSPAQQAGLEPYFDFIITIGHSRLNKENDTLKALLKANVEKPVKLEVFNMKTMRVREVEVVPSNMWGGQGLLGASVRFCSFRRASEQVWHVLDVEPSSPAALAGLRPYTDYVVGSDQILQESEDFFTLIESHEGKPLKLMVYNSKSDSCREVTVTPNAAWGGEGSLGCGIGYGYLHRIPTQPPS
Chain of MAGI3_2, Q5TCQ9 (Q5TCQ9 398-503): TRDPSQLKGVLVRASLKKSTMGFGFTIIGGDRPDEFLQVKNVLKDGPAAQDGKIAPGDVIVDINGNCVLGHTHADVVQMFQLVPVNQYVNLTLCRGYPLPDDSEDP
Chain of FRMPD2_3, Q68DX3 (Q68DX3 1073-1166): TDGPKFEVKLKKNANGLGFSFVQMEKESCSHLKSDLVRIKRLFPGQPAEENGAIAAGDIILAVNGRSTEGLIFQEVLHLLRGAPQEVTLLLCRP
Chain of GRIP2_6, Q9C0E4 (Q9C0E4 648-740): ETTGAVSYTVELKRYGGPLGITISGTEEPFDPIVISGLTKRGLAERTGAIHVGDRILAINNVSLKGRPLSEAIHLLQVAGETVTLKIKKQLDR
Chain of DLG1_3, Q12959 (Q12959 457-571): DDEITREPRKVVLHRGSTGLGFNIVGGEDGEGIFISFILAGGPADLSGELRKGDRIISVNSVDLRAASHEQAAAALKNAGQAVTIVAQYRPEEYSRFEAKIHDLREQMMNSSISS
Chain of IL16_3, Q14005 (Q14005 1107-1207): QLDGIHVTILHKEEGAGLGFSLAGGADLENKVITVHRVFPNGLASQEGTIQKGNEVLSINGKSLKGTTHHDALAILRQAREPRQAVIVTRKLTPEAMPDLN
Chain of GRIP2_4, Q9C0E4 (Q9C0E4 446-548): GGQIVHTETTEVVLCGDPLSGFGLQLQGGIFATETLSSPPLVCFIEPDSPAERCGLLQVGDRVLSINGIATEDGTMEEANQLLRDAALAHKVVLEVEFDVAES
Chain of Inadl_10, Q8NI35 (Q8NI35 1673-1763): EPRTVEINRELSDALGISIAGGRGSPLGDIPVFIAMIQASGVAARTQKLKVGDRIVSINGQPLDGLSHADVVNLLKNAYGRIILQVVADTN
Chain of Inadl_6, Q8NI35 (Q8NI35 1058-1167): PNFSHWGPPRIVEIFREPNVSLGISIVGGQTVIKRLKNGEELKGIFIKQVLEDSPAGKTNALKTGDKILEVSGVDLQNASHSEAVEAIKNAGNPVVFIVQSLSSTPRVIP

EKQAKGDTEF [CACYBP, Q9HB71]
pKd (LRRC7, Q96NW7; [1]): below the threshold | pKd (GRIP2_4, Q9C0E4; [1]): below the threshold | pKd (CARD11, Q9BXL7; [1]): below the threshold | pKd (SCRIB_1, Q14160; [1]): below the threshold | pKd (DLG2_3, Q15700; [1]): below the threshold | pKd (SNX27, Q96L92; [1]): 3.68 | pKd (NHERF3_3, Q5T2W1; [1]): below the threshold | pKd (GORASP1, Q9BQQ3; [1]): below the threshold | pKd (DFNB31_3, Q9P202; [1]): below the threshold | pKd (SNTB1, Q13884; [1]): below the threshold | pKd (Inadl_2, Q8NI35; [1]): below the threshold | pKd (DLG1_3, Q12959; [1]): below the threshold | pKd (Inadl_10, Q8NI35; [1]): below the threshold | pKd (GRASP, Q7Z6J2; [1]): below the threshold | pKd (TIAM2, Q8IVF5; [1]): below the threshold | pKd (FRMPD2_3, Q68DX3; [1]): below the threshold | pKd (IL16_3, Q14005; [1]): below the threshold | pKd (GOPC, Q9HD26; [1]): below the threshold | pKd (GRIP1_4, Q9Y3R0; [1]): below the threshold | pKd (SNTA1, Q13424; [1]): below the threshold | pKd (HTRA3, P83110; [1]): below the threshold | pKd (GRIP1_7, Q9Y3R0; [1]): below the threshold | pKd (MAGI3_2, Q5TCQ9; [1]): below the threshold | pKd (GRIP2_6, Q9C0E4; [1]): below the threshold | pKd (RHPN1, Q8TCX5; [1]): below the threshold | pKd (Inadl_6, Q8NI35; [1]): below the threshold

VLYPREGTEV [FOXI1, Q12951]
pKd (LRRC7, Q96NW7; [2]): 3.49 | pKd (GRIP2_4, Q9C0E4; [2]): below the threshold | pKd (CARD11, Q9BXL7; [2]): below the threshold | pKd (SCRIB_1, Q14160; [2]): 3.99 | pKd (DLG2_3, Q15700; [2]): 3.9 | pKd (SNX27, Q96L92; [2]): 4.31 | pKd (NHERF3_3, Q5T2W1; [2]): below the threshold | pKd (GORASP1, Q9BQQ3; [2]): below the threshold | pKd (DFNB31_3, Q9P202; [2]): below the threshold | pKd (SNTB1, Q13884; [2]): 3.97 | pKd (Inadl_2, Q8NI35; [2]): below the threshold | pKd (DLG1_3, Q12959; [2]): 3.75 | pKd (Inadl_10, Q8NI35; [2]): below the threshold | pKd (GRASP, Q7Z6J2; [2]): 4.31 | pKd (TIAM2, Q8IVF5; [2]): below the threshold | pKd (FRMPD2_3, Q68DX3; [2]): below the threshold | pKd (IL16_3, Q14005; [2]): below the threshold | pKd (GOPC, Q9HD26; [2]): 3.52 | pKd (GRIP1_4, Q9Y3R0; [2]): below the threshold | pKd (SNTA1, Q13424; [2]): 4.02 | pKd (HTRA3, P83110; [2]): below the threshold | pKd (GRIP1_7, Q9Y3R0; [2]): below the threshold | pKd (MAGI3_2, Q5TCQ9; [2]): 4.52 | pKd (GRIP2_6, Q9C0E4; [2]): below the threshold | pKd (RHPN1, Q8TCX5; [2]): 3.95 | pKd (Inadl_6, Q8NI35; [2]): below the threshold

MHIQEKGFHV [EPHA6, Q9UF33]
pKd (LRRC7, Q96NW7; [2]): below the threshold | pKd (GRIP2_4, Q9C0E4; [2]): below the threshold | pKd (CARD11, Q9BXL7; [2]): below the threshold | pKd (SCRIB_1, Q14160; [2]): below the threshold | pKd (DLG2_3, Q15700; [2]): below the threshold | pKd (SNX27, Q96L92; [2]): below the threshold | pKd (NHERF3_3, Q5T2W1; [2]): below the threshold | pKd (GORASP1, Q9BQQ3; [2]): below the threshold | pKd (DFNB31_3, Q9P202; [2]): 4.07 | pKd (SNTB1, Q13884; [2]): below the threshold | pKd (Inadl_2, Q8NI35; [2]): below the threshold | pKd (DLG1_3, Q12959; [2]): below the threshold | pKd (Inadl_10, Q8NI35; [2]): below the threshold | pKd (GRASP, Q7Z6J2; [2]): below the threshold | pKd (TIAM2, Q8IVF5; [2]): below the threshold | pKd (FRMPD2_3, Q68DX3; [2]): below the threshold | pKd (IL16_3, Q14005; [2]): below the threshold | pKd (GOPC, Q9HD26; [2]): below the threshold | pKd (GRIP1_4, Q9Y3R0; [2]): below the threshold | pKd (SNTA1, Q13424; [2]): below the threshold | pKd (HTRA3, P83110; [2]): 3.61 | pKd (GRIP1_7, Q9Y3R0; [2]): below the threshold | pKd (MAGI3_2, Q5TCQ9; [2]): below the threshold | pKd (GRIP2_6, Q9C0E4; [2]): 3.59 | pKd (RHPN1, Q8TCX5; [2]): below the threshold | pKd (Inadl_6, Q8NI35; [2]): below the threshold

GTGYDRKDYV [CLDN3, O15551]
pKd (LRRC7, Q96NW7; [2]): below the threshold | pKd (GRIP2_4, Q9C0E4; [2]): 3.53 | pKd (CARD11, Q9BXL7; [2]): below the threshold | pKd (SCRIB_1, Q14160; [2]): below the threshold | pKd (DLG2_3, Q15700; [2]): below the threshold | pKd (SNX27, Q96L92; [2]): 3.68 | pKd (NHERF3_3, Q5T2W1; [2]): below the threshold | pKd (GORASP1, Q9BQQ3; [2]): below the threshold | pKd (DFNB31_3, Q9P202; [2]): 4.06 | pKd (SNTB1, Q13884; [2]): below the threshold | pKd (Inadl_2, Q8NI35; [2]): below the threshold | pKd (DLG1_3, Q12959; [2]): 3.67 | pKd (Inadl_10, Q8NI35; [2]): below the threshold | pKd (GRASP, Q7Z6J2; [2]): below the threshold | pKd (TIAM2, Q8IVF5; [2]): below the threshold | pKd (FRMPD2_3, Q68DX3; [2]): below the threshold | pKd (IL16_3, Q14005; [2]): below the threshold | pKd (GOPC, Q9HD26; [2]): below the threshold | pKd (GRIP1_4, Q9Y3R0; [2]): below the threshold | pKd (SNTA1, Q13424; [2]): below the threshold | pKd (HTRA3, P83110; [2]): 4.17 | pKd (GRIP1_7, Q9Y3R0; [2]): below the threshold | pKd (MAGI3_2, Q5TCQ9; [2]): below the threshold | pKd (GRIP2_6, Q9C0E4; [2]): below the threshold | pKd (RHPN1, Q8TCX5; [2]): below the threshold | pKd (Inadl_6, Q8NI35; [2]): below the threshold

RDPPAEWTRV [PTPN18, Q99952]
pKd (LRRC7, Q96NW7; [2]): below the threshold | pKd (GRIP2_4, Q9C0E4; [2]): below the threshold | pKd (CARD11, Q9BXL7; [2]): below the threshold | pKd (SCRIB_1, Q14160; [2]): 4.1 | pKd (DLG2_3, Q15700; [2]): 3.54 | pKd (SNX27, Q96L92; [2]): 4.55 | pKd (NHERF3_3, Q5T2W1; [2]): 3.87 | pKd (GORASP1, Q9BQQ3; [2]): 4.07 | pKd (DFNB31_3, Q9P202; [2]): below the threshold | pKd (SNTB1, Q13884; [2]): 4.37 | pKd (Inadl_2, Q8NI35; [2]): below the threshold | pKd (DLG1_3, Q12959; [2]): below the threshold | pKd (Inadl_10, Q8NI35; [2]): 3.61 | pKd (GRASP, Q7Z6J2; [2]): 4.66 | pKd (TIAM2, Q8IVF5; [2]): below the threshold | pKd (FRMPD2_3, Q68DX3; [2]): below the threshold | pKd (IL16_3, Q14005; [2]): below the threshold | pKd (GOPC, Q9HD26; [2]): 4.3 | pKd (GRIP1_4, Q9Y3R0; [2]): below the threshold | pKd (SNTA1, Q13424; [2]): 4.39 | pKd (HTRA3, P83110; [2]): below the threshold | pKd (GRIP1_7, Q9Y3R0; [2]): below the threshold | pKd (MAGI3_2, Q5TCQ9; [2]): 4.27 | pKd (GRIP2_6, Q9C0E4; [2]): below the threshold | pKd (RHPN1, Q8TCX5; [2]): 4.35 | pKd (Inadl_6, Q8NI35; [2]): below the threshold
